Reference: patent publication US20120264693A1, “COMPOUNDS ACTING AS PEPTIDE GAP JUNCTION MODULATORS, AND USES THEREOF” (Zealand Pharma A/S, priority 2009, published 2012)

Experiments:
[1] = tested on: neonatal rat ventricular cardiac myocytes; assay: Acidification-induced uncoupling (pH 6.2), dual-cell patch clamp in neonatal rat ventricular cardiac myocytes; format: cell-based; conditions: peptide 0.1 mM buffered to pH 6.2
Experimental: Lower graph: Time course of acidification-induced uncoupling in neonatal rat ventricular cardiac myocytes. Cell pairs were recorded with patch pipettes that contained (i) ZP2771 (0.1 mM, buffered to pH 6.2; uppermost curve; filled square symbols), (ii) linear peptide RRPPYR (0.1 mM buffered to pH 6.2; middle curve; filled triangle symbols), or (iii) only the internal pipette filling solution buffered to pH 6.2 (lowermost curve; filled circle symbols). Experiments were conducted using the dual-cell patch clamp technique.
(§1) Patch clamp experiments were conducted in N2a cells transiently transfected with Cx43. In all cases, the dual-whole-cell voltage clamp technique was used to record gap junction currents. Specifics for cell culture, transfection and recordings are described in Shibayama et al. (Identification of a novel peptide that interferes with the chemical regulation of connexin 43. Circ Res 2006 98:1365-72). Octanol superfusion was initiated 5 minutes after patch break and continued for 10 minutes. Concentration of octanol was 1.5 mM in all experiments. Peptides were diluted in the internal pipette solution to a final concentration of 100 μM. A total of 20 experiments were carried out where octanol-induced uncoupling was tested in the absence of peptides. These experiments were averaged, and data used as control for comparison with those series where a given peptide was assessed. Patch clamp experiments were also conducted (cf. FIG. 6 herein) using ventricular myocytes from neonatal Sprague-Dawley rats (rats supplied by Charles River, Mass. USA), isolated and cultured according to Rohr et al. (see Circ. Res. 1991; 68: 114-130, and J. Cardiovasc. Electrophysiol. 1995; 6: 551-568).

Cx43 [2] = biological target: T1, Cx43 (Homo sapiens, UniProt P17302); assay: Octanol-induced uncoupling, dual-cell patch clamp, junctional conductance (Gj) in Cx43-expressing N2A cell pairs; format: cell-based, mouse; conditions: for cells remaining coupled ten minutes after the onset of octanol superfusion: peptide 100 μM in pipette, 1.5 mM octanol, 10 min; for effect on octanol-induced decrease of Gj compared to control (in words): 1.5 mM octanol perfusion
T1 construct: expressed in transfected cells; host or cells: N2a (mouse neuroblastoma) cells, transiently transfected
Experimental: FIG. 2. Time course of octanol-induced uncoupling in human Cx43-expressing N2A cells. Cell pairs were recorded with patch pipettes that contained either ZP2778 (0.1 mM; upper curve/trace), or only the internal pipette filling solution (control; lower curve/trace). Experiments were conducted using the dual-cell patch clamp technique, and 1.5 mM octanol perfusion was started at Time=0.
as §1
Junctional conductance (Gj) was measured in N2a cell pairs expressing Cx43. Patch pipettes were filled with an internal solution containing the specific peptide under study, and the time course and extent of octanol-induced uncoupling was compared to that observed in the absence of the peptide. FIGS. 2-5 show average measurements of junctional conductance and percent of coupled cells recorded at various times after the onset of octanol superfusion for the cyclized peptides ZP2769, ZP2771, ZP2778, ZP2782 and for the dissolution medium (internal pipette solution) used as control. […] For ZP2778 (FIG. 2), 60% of the cells remained coupled, while 20% remained coupled for ZP2782 (FIG. 4).

recombinant rat Cx43CT = recombinant rat Cx43CT (Rattus norvegicus, UniProt P08050); assay: Surface plasmon resonance (SPR) binding of peptides to immobilised Cx43CT; conditions: for binding to the Cx43CT (in words): SPR, FIG. 1 / Table 2; for (ru * 100)/Mw: response normalised to molecular weight
Description: FIG. 1. SPR results for compounds (peptides) ZP2769 and ZP2771. Recombinant rat Cx43CT was covalently bound to a carboxylmethyl dextran matrix and used as ligand. Peptides were presented to the bound ligand, and the amplitude of the response was subtracted from that obtained from a control chamber with no ligand. If no change in angle of resonance was observed, this was taken as an indication of absence of binding. The amplitude of the change in angle of resonance (expressed as “response units”) is a function of the molecular mass of the analyte, and for comparison purposes response units were therefore normalized taking into account the molecular weight of the tested compound. Change in angle of incidence of resonance (in “resonance units”) was plotted against time after onset of cyclic peptide exposure. The various curves correspond to different applied concentrations of the peptide in question, as follows:
Compounds of the present invention may be tested for binding to the carboxyl terminal domain of Cx43 using Surface Plasmon Resonance (“SPR”). SPR is a technique that was used to identify the original RXPE sequence (Shibayama et al., “Identification of a Novel Peptide that Interferes with the Chemical Regulation of Connexin-43,” Circ. Res. 98:1365-72 (2006)). The concentration of the compound relative to the amplitude of the response in arbitrary units is measured.
Recombinant Cx43CT is covalently bound to a carboxylmethyl dextran matrix (Salemon et al., “Surface Plasmon Resonance Spectroscopy as a Tool for Investigating the Biochemical and Biophysical Properties of Membrane Protein Systems. II: Applications to Biological Systems,” Biochim. Biophys. Acta 1331(2):131-152 (1997)). Specific peptide compounds are presented and, when feasible, dissociation constants (KD) are calculated from the time course of binding and unbinding of the ligand, using a 1:1 (Langmuir) association and dissociation kinetic model (Biacore software package). In both phases (association and dissociation), the first 5-8 seconds of recording are not included in the fit, to avoid artifacts resulting from peptide distribution within the flow cells (Lang et al., “Surface Plasmon Resonance as a Method to Study the Kinetics and Amplitude of Protein-protein Binding,” in Practical Methods in Cardiovascular Research 936-947 (Stefan Dhein, Friedrich Wilhelm Mohr & Mario Delmar eds., 2005). In the present experiments recombinant rat Cx43CT was covalently bound to a carboxylmethyl-dextran matrix and used as ligand.
Examples of the cyclic peptide compounds of the present invention were presented to the bound ligand, and the amplitude of the response was subtracted from that obtained from a control chamber with no ligand. No change in angle of resonance was taken as an indication of absence of binding. The amplitude of the change in angle of resonance (expressed as “response units”) is a function of the molecular mass of the analyte and for comparison purposes response units were normalized taking account of the molecular weight of the tested compound. Change in angle of incidence of resonance (in “resonance units”) was plotted against time after onset of cyclic peptide exposure.
SPR allows for assessment of ligand-analyte binding in real time, and was used for characterization of two of the cyclic peptide compounds of the present invention. Cx43CT was covalently bound to the matrix of a sensor chip. […] In FIG. 1, the change in angle of incidence of resonance (in “resonance units”) is plotted against time after onset of cyclic peptide exposure. Different concentrations were applied, as indicated.

Cx43 [3] = biological target: T1, Cx43; assay: Acidification-induced uncoupling (pH 6.2), dual-cell patch clamp in Cx43-expressing N2A cell pairs; conditions: peptide 0.1 mM in patch pipette, N2A cells
Experimental: FIG. 6. Upper graph: Time course of acidification-induced uncoupling in human Cx43-expressing N2A cells. Cell pairs were recorded with patch pipettes that contained either ZP2771 (0.1 mM; upper curve), or only the internal pipette filling solution buffered to pH 6.2 (control; lower curve). Experiments were conducted using the dual-cell patch clamp technique.
as §1, with “Patch clamp experiments were also conducted (cf. FIG. 6 herein) using ventricular myocytes from neonatal Sprague-Dawley rats (rats supplied by Charles River, Mass. USA), isolated and cultured according to Rohr et al. (see Circ. Res. 1991; 68: 114-130, and J. Cardiovasc. Electrophysiol. 1995; 6: 551-568).” left out

[4] = peptide 0.1 mM in patch pipette

T1 sequence (P17302 2-382 limits assumed): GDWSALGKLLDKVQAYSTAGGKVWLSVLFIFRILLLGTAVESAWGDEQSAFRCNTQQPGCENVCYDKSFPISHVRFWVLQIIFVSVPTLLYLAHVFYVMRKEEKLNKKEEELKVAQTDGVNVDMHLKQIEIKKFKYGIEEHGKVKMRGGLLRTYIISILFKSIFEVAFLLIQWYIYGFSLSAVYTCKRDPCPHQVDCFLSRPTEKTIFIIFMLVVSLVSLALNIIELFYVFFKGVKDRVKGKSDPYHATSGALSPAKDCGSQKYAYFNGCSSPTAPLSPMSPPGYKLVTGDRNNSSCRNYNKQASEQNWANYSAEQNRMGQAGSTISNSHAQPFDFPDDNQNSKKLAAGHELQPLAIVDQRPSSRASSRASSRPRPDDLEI
recombinant rat Cx43CT, sequence (P08050 229-382 limits assumed): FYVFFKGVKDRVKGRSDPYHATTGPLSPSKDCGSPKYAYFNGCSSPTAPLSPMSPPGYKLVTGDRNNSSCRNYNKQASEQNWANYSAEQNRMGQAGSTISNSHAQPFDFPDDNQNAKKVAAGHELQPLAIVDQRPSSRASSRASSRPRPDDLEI

| Substance | Gj fifteen minutes after patch break [1] | cells remaining coupled ten minutes after the onset of octanol superfusion (Cx43 [2]) | effect on octanol-induced decrease of Gj compared to control (in words) (Cx43 [2]; [4]) | binding to the Cx43CT (in words) (recombinant rat Cx43CT) | Resonance Units (ru) (recombinant rat Cx43CT; peptide conc 0.063 mM) | (ru * 100)/Mw (recombinant rat Cx43CT; peptide conc 0.063 mM) | Resonance Units (ru) (recombinant rat Cx43CT; peptide conc 0.125 mM) | (ru * 100)/Mw (recombinant rat Cx43CT; peptide conc 0.125 mM) | Resonance Units (ru) (recombinant rat Cx43CT; peptide conc 0.250 mM) | (ru * 100)/Mw (recombinant rat Cx43CT; peptide conc 0.250 mM) | Resonance Units (ru) (recombinant rat Cx43CT; peptide conc 0.500 mM) | (ru * 100)/Mw (recombinant rat Cx43CT; peptide conc 0.500 mM) | Resonance Units (ru) (recombinant rat Cx43CT; peptide conc 1.000 mM) | (ru * 100)/Mw (recombinant rat Cx43CT; peptide conc 1.000 mM) | other results |
| --- | --- | --- | --- | --- | --- | --- | --- | --- | --- | --- | --- | --- | --- | --- | --- |
| RRPPYR [reference compound] | approximately 0.17 | – | – | – | – | – | – | – | – | – | – | – | – | – | – |
| cyclo(RRPPYN) [ZP2778] | – | 60% | significantly (p<0.05) prevented the decrease of Gj | – | – | – | – | – | – | – | – | – | – | – | – |
| cyclo(RRPPYQ) [ZP2769] | – | all cells remained coupled | marked reduction in the decrease of Gj | significant binding | 18.6 | 2.33 | 29.6 | 3.71 | 55.8 | 6.99 | 101.9 | 12.77 | 196.2 | 24.59 | – |
| Cyclo(RRPPYRQ) (cyclic) [ZP2771] | approximately 0.47 | all cells remained coupled | significantly (p<0.05) prevented the decrease of Gj | significant binding | 192.4 | 20.18 | 323.6 | 33.94 | 574.0 | 60.20 | 896.0 | 93.97 | 1253.0 | 131.41 | effect on acidification-induced decrease of Gj compared to linear peptide and control (in words) [1]: significantly (p=0.006) prevented the decrease of Gj; Gj fifteen minutes (900 sec) after patch break (Cx43 [3]): approximately 0.49; effect on acidification-induced decrease of Gj compared to control (in words) (Cx43 [3]): significantly (p=0.002) prevented the decrease of Gj; Gj at the end of the experiment (Cx43 [2]; peptide 0.1 mM in patch pipette, after 10 minutes of 1.5 mM octanol perfusion): approximately 0.65; Resonance Units (ru) (recombinant rat Cx43CT; peptide conc 0.008 mM): 27.6 ru; (ru * 100)/Mw (recombinant rat Cx43CT; peptide conc 0.008 mM): 2.89; Resonance Units (ru) (recombinant rat Cx43CT; peptide conc 0.016 mM): 58.1 ru; (ru * 100)/Mw (recombinant rat Cx43CT; peptide conc 0.016 mM): 6.09; Resonance Units (ru) (recombinant rat Cx43CT; peptide conc 0.031 mM): 95.8 ru; (ru * 100)/Mw (recombinant rat Cx43CT; peptide conc 0.031 mM): 10.05 |
| cyclo(RRPPWN) [ZP2782] | – | 20% | reduction in the decrease of Gj | – | – | – | – | – | – | – | – | – | – | – | – |
